This is an account of results in patent publication US11844843 (DYNE THERAPEUTICS, dated 2023).

For assay [1], the target named is T1, recombinant human TfR1 (transferrin receptor protein 1) (human, UniProt P02786 89-760).
T1 construct: Recombinant protein in SPR and ELISA; they were assigned to this molecule; also called hTfR1; huTfR1
Kind of assay: ELISA on hTfR1, Fab conjugated to DMPK-targeting oligonucleotide, % normalized RFUs. (In an ELISA, binding on a coated surface is turned into a signal by an enzyme label.)

The target of assay [2] is T1, recombinant human TfR1 (transferrin …). The assay can be described thus: ELISA, recombinant TfR1 coated, Fab-ASO300 conjugate (row 'Conjugate binding affinity ELISA').
Assay [3] has as its target T2, recombinant cynomolgus monkey (Macaca fascicularis) TfR1 (cynomolgus monkey (Macaca fascicularis), UniProt Q5RDH6 87-760 (Pongo abelii entry), limits assumed).
T2 construct: Recombinant protein; also called cTfR1; cyTfR1
T2 chain: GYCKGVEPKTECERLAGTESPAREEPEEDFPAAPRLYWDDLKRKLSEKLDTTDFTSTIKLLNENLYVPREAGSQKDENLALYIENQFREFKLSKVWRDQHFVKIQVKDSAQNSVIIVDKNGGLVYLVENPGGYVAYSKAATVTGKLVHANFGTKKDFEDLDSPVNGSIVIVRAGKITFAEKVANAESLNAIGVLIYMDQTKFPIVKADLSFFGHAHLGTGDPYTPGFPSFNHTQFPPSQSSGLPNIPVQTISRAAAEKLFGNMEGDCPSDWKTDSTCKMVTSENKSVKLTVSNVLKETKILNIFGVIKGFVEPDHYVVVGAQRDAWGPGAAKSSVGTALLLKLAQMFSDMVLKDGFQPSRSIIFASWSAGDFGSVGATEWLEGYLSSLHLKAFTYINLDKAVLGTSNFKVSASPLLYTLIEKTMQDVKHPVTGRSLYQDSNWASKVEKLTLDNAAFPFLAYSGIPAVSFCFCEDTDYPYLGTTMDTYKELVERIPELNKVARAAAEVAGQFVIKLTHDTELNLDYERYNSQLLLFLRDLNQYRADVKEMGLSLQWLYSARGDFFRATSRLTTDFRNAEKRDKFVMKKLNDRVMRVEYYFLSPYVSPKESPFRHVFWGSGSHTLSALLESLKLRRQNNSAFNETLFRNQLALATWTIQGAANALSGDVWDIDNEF
Described as above.

For assay [4], the target named is T2, recombinant cynomolgus monkey (Macaca …). The assay can be described thus: ELISA on cTfR1, Fab conjugated to DMPK-targeting oligonucleotide, % normalized RFUs.
For assay [5], the target named is T1, recombinant human TfR1 (transferrin …). The assay can be described thus: Table 14, Fab-ASO300 conjugate; method not named.
For assay [6], the target named is T2, recombinant cynomolgus monkey (Macaca …). The assay can be described thus: Table 14, Fab-ASO300 conjugate; method not named.
In assay [7] the target is T1, recombinant human TfR1 (transferrin …). Kind of assay: ELISA on hTfR1, Fab conjugated to DMPK-targeting oligonucleotide, % normalized RFUs. The source holds these as a separate data set.
Assay [8] concerns the target T2, recombinant cynomolgus monkey (Macaca …). The assay can be described thus: ELISA on cTfR1, Fab conjugated to DMPK-targeting oligonucleotide, % normalized RFUs.
For assay [9], the target named is T1, recombinant human TfR1 (transferrin …). Kind of assay: Avg KD, antibody alone; method not stated in Table 11.
Assay [10] deals with T2, recombinant cynomolgus monkey (Macaca …). The description is as above.
Assay [11] deals with T1, recombinant human TfR1 (transferrin …). Kind of assay: Carterra LSA SPR, 25 C; IgG captured, hTfR1 as analyte; 1:1 fit. As to the method:
Selected anti-TfR1 antibodies were tested for their binding affinity to human TfR1 for measurement of Ka (association rate constant). Kd (dissociation rate constant), and K_D (affinity). […] The binding experiment was performed on Carterra LSA at 25° C. An anti-mouse IgG and anti-human IgG antibody "lawn" was prepared on a HC30M chip by amine coupling. The IgGs were captured on the chip. Dilution series of hTfR1, cyTfR1, and hTfR2 were injected to the chip for binding (starting from 1000 nM, 1:3 dilution, 8 concentrations).
Binding data were referenced by subtracting the responses from a buffer analyte injection and globally fitting to a 1:1 Langmuir binding model for estimate of Ka (association rate constant), Kd (dissociation rate constant), and K_D (affinity) using the Carterra™ Kinetics software, 5-6 concentrations were used for curve fitting.

Numbering of substitutions follows the chain as printed. In names and notes the source's numbering stands.

B1: conjugate of humanized anti-TfR Fab 3M12 VH4/Vκ3 with DMPK-targeting oligonucleotide ASO300 (Fab, V domains shown)
VH: QVQLQESGPGLVKPSQTLSLTCTVTGYSITSGYYWNWIRQPPGKGLEWIGYITFDGANNYNPSLKNRVSISRDTSKNQFSLKLSSVTAEDTATYYCTRSSYDYDVLDYWGQGTTVTVSS
VL: DIQMTQSPSSLSASVGDRVTITCRASQDISNFLNWYQQKPGQPVKLLIYYTSRLHSGVPSRFSGSGSGTDFTLTISSLQPEDFATYYCQQGHTLPYTFGQGTKLEIKR
modifications: oligonucleotide ASO300 conjugated to the Fab via linker; residue and chain not stated
notes: also called 3M12 (VH4/Vk3) conjugate
Consider B1, for which the EC50 in assay [1] came to 1.7 nM; in assay [2], 1.7 nM; in [3], 2.1 nM; in assay [4], 2.1 nM. Also, the “DMPK oligo conjugate binding” value in [5] is 1.18 nM; in [6], 1.85 nM.

B2: conjugate of humanized anti-TfR Fab 3M12 VH3/Vκ2 with DMPK-targeting oligonucleotide ASO300 (Fab, V domains shown)
VH: B1 VH with T23S, I49M
VL: B1 VL with Y87F
modifications: oligonucleotide ASO300 conjugated to the Fab via linker; residue and chain not stated
notes: also called 3M12 (VH3/Vk2) conjugate
Consider B2, for which the EC50 in assay [1] is 2.2 nM; in assay [2], 2.2 nM; in assay [3], 2.9 nM; in assay [4], 2.9 nM. Further, the “DMPK oligo conjugate binding” value in assay [5] stood at 1.14 nM; in assay [6], 2.26 nM.

B3: conjugate of humanized anti-TfR Fab 3A4 VH3 (N54S)/Vκ4 with DMPK-targeting oligonucleotide ASO300 (Fab, V domains shown)
VH: EVQLVQSGSELKKPGASVKVSCTASGFNIKDDYMYWVRQPPGKGLEWIGWIDPESGDTEYASKFQDRVTVTADTSTNTAYMELSSLRSEDTAVYYCTLWLRRGLDYWGQGTLVTVSS
VL: DIVMTQSPLSLPVTPGEPASISCRSSKSLLHSNGYTYLFWFQQRPGQSPRLLIYRMSNLASGVPDRFSGSGSGTDFTLKISRVEAEDVGVYYCMQHLEYPFTFGGGTKVEIKR
modifications: oligonucleotide ASO300 conjugated to the Fab via linker; residue and chain not stated
notes: also called 3A4 (VH3-N54S/Vk4) conjugate
As to B3, the EC50 in [7] was determined as 3.6 nM; in [2], 2.9 nM; in assay [3], 7.8 nM; in [8], 5.7 nM. For the same molecule, the “DMPK oligo conjugate binding” value in assay [5] was 2.71 nM; in [6], 4.1 nM.

B4: conjugate of humanized anti-TfR Fab 3A4 VH3 (N54T)/Vκ4 with DMPK-targeting oligonucleotide ASO300 (Fab, V domains shown)
VH: B3 VH with S55T
VL: B3 VL
modifications: oligonucleotide ASO300 conjugated to the Fab via linker; residue and chain not stated
notes: also called 3A4 (VH3-N54T/Vk4) conjugate
For the molecule B4, the EC50 in assay [7] worked out at 3.3 nM; in assay [2], 2.8 nM; in assay [3] it was 4.7 nM; in assay [8] it was 5.8 nM. The figures for the “DMPK oligo conjugate binding” value in assay [5] and in assay [6] were 2.22 nM and 5.12 nM, respectively.

B5: 5-H12 mouse monoclonal anti-TfR antibody (antibody, V domains shown)
VH: QIQLQQSGPELVRPGASVKISCKASGYSFTDYCINWVNQRPGQGLEWIGWIYPGSGNTRYSERFKGKATLTVDTSSNTAYMQLSSLTSEDSAVYFCAREDYYPYHGMDYWGQGTSVTVSS
VL: DIVLTQSPTSLAVSLGQRATISCRASESVDGYDNSFMHWYQQKPGQPPKLLIFRASNLESGIPARFSGSGSRTDFTLTINPVEAADVATYYCQQSSEDPWTFGGGTKLEIK
notes: Mouse monoclonal IgG
On to B5, for which the Kd in assay [9] came out at 202 nM; in assay [10] it was 12 nM; in [11] it was 208 nM. Further, in assay [11], the kon worked out at 66700 M⁻¹ s⁻¹.

B6: 3-M12 mouse monoclonal anti-TfR antibody (antibody, V domains shown)
VH: DVQLQESGPGLVKPSQSLSLTCSVTGYSITSGYYWNWIRQFPGNKLEWMGYITFDGANNYNPSLKNRISITRDTSKNQFFLKLTSVTTEDTATYYCTRSSYDYDVLDYWGQGTTLTVSS
VL: DIQMTQTTSSLSASLGDRVTISCRASQDISNFLNWYQQRPDGTVKLLIYYTSRLHSGVPSRFSGSGSGTDFSLTVSNLEQEDIATYFCQQGHTLPYTFGGGTKLEIK
notes: Mouse monoclonal IgG
Take B6: the Kd was 0.768 nM in assay [9], 5.18 nM in assay [10] and 0.768 nM in assay [11]. Besides, the kon in assay [11] came to 166000 M⁻¹ s⁻¹.

As a reminder, the EC50 is the concentration giving half of the maximal effect. Usually Kd stands for the free concentration of one partner at which half of the binding sites on the other are occupied at equilibrium, for simple one-to-one binding. A word on the kon: it is a measure of how fast the partners come together.
